Results as given in publication PMC3062166 (Molecular cell, 2011).

Columns and labels:
[1] = biological target: SBP-RNF20 (baculovirus) (human, UniProt Q5VTR2 1-975); test: pull-down + SEC
[2] = biological target: SFB-RNF40 (baculovirus) (human, UniProt O75150 1-1001); test: pull-down + SEC
Chain of SFB-RNF40 (baculovirus) (O75150 whole entry): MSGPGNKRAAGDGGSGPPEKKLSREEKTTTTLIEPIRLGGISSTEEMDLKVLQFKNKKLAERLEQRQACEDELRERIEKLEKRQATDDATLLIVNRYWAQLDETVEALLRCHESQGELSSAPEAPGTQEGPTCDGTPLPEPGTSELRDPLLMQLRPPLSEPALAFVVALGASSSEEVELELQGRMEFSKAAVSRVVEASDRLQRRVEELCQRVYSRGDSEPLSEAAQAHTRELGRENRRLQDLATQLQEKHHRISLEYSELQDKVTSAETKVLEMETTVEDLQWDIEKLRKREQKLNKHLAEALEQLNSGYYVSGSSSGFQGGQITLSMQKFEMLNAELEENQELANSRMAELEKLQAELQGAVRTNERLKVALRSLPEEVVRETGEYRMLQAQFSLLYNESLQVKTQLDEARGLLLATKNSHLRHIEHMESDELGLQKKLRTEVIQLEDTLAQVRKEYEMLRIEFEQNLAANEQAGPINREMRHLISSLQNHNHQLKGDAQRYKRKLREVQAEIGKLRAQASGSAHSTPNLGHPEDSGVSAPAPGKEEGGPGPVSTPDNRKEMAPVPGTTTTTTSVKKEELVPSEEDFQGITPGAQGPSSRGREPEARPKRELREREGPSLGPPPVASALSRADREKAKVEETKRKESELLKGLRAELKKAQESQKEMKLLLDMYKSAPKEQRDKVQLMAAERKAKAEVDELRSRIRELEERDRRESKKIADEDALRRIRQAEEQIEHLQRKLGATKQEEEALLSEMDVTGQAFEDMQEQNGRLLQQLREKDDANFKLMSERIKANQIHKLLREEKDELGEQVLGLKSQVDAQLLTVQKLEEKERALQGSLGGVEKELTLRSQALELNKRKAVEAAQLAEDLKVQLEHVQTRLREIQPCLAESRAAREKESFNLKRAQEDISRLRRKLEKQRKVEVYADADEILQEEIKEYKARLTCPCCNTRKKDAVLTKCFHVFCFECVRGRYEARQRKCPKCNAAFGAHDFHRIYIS

Chain of SBP-RNF20 (baculovirus) (Q5VTR2 whole entry): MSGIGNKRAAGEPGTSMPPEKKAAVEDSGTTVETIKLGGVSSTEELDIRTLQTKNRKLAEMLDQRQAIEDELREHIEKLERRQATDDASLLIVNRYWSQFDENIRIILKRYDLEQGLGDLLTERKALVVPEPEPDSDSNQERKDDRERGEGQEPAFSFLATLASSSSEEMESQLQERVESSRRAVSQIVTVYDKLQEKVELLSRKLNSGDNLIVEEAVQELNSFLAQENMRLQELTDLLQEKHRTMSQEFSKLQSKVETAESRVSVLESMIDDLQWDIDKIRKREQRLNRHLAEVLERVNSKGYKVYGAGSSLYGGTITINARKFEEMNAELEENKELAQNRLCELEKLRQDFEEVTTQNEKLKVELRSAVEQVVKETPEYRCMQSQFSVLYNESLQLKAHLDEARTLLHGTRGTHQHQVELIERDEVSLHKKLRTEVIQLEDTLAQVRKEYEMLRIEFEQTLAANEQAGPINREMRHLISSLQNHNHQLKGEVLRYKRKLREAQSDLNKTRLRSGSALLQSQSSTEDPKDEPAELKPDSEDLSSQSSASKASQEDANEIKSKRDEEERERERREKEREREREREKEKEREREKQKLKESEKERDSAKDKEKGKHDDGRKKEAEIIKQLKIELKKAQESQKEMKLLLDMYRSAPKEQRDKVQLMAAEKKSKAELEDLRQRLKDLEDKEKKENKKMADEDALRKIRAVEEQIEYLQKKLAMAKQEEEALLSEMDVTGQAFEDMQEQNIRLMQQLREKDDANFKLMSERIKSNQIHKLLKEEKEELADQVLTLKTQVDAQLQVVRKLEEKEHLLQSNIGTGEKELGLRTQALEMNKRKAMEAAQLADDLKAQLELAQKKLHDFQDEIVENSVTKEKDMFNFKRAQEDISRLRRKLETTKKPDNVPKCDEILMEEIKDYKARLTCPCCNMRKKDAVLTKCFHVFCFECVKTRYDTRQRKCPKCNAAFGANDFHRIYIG

B1: untagged WAC (baculovirus) (natural protein, UniProt Q9BTA9 1-647, looked up)
chain: MVMYARKQQRLSDGCHDRRGDSQPYQALKYSSKSHPSSGDHRHEKMRDAGDPSPPNKMLRRSDSPENKYSDSTGHSKAKNVHTHRVRERDGGTSYSPQENSHNHSALHSSNSHSSNPSNNPSKTSDAPYDSADDWSEHISSSGKKYYYNCRTEVSQWEKPKEWLEREQRQKEANKMAVNSFPKDRDYRREVMQATATSGFASGMEDKHSSDASSLLPQNILSQTSRHNDRDYRLPRAETHSSSTPVQHPIKPVVHPTATPSTVPSSPFTLQSDHQPKKSFDANGASTLSKLPTPTSSVPAQKTERKESTSGDKPVSHSCTTPSTSSASGLNPTSAPPTSASAVPVSPVPQSPIPPLLQDPNLLRQLLPALQATLQLNNSNVDISKINEVLTAAVTQASLQSIIHKFLTAGPSAFNITSLISQAAQLSTQAQPSNQSPMSLTSDASSPRSYVSPRISTPQTNTVPIKPLISTPPVSSQPKVSTPVVKQGPVSQSATQQPVTADKQQGHEPVSPRSLQRSSSQRSPSPGPNHTSNSSNASNATVVPQNSSARSTCSLTPALAAHFSENLIKHVQGWPADHAEKQASRLREEAHNMGTIHMSEICTELKNLRSLVRVCEIQATLREQRILFLRQQIKELEKLKNQNSFMV
- stoichiometry N [1]: ~1 WAC per RNF20 (2:2)
- stoichiometry N [2]: ~1 WAC per RNF40 (2:2)
